This note sets out measurements from paper PMC10967930.

The target of experiment [1] is full-length SARS-CoV-2 spike protein of original COVID-19 (SARS-CoV-2) (UniProt P0DTC2). Description: ELISA. A general note: An ELISA detects its analyte on a solid surface through an enzyme-linked reagent.
Experiment [2] concerns the target human PF4 isolated from human platelets (human). The experiment in a line: other fluorescence titration.

For “human PF4 isolated from human platelets (natural protein)”, the OD at 450 nm in experiment [1] is more than 0.5.

The term Kd denotes a measure of binding affinity in units of concentration. A high value points to a looser complex. In experiment [2], “full-length SARS-CoV-2 spike protein of original COVID-19 (from UniProt P0DTC2) (natural protein)” returned a Kd of 586 nM.
